Source: IntAct's records for PubMed 40475291

B1: Patched domain-containing protein 1 (Mus musculus), Q14B62 (parent)
chain: MLRQVLHRGLRTCFSRLGHFIASHPVFFASAPVLISILLGASFSRYQVEESVEHLLAPQHSLAKIERNLVNSLFPVNRSKHRLYSDLQTPGRYGRVIVTSYQKANMLDQHHTDLILKLHTAVTKIQVPRPGFNYTFAHICVLNNDKTCIVDDIVHVLEELKNARATNRTNFAITYPITHLKDGRAVYNGHQLGGVTVHSKDRVKSAEAIQLTYYLQSINSLNDMVAERWESSFCDTVKLFQKSNSKVKIYPYTSSSLREDFQKTSRVSERYLVTSLILVVTMAILCCSMQDCVRSKPWLGLLGLVTISLATLTAAGIINLTGGKYNSTFLGVPFVMLGHGLYGTFEMLSSWRKTREDQHVKERTAEVYADSMLSFSLTTAMYLVTFGIGASPFTNIEAARIFCCNSCIAILFNYLYVLSFYGSSLVFTGYIENNYQHSIFCRKVPKPDVLQEKPAWYRFLLTARFSEETAEGEEANTYESHLLVCFLKRYYCDWITNTYVKPFVVLFYLIYISFALMGYLQVSEGSDLSNIVATATQTIEYTTAHQKYFNNYSPVIGFYIYESIEYWNSSVQEDVLEYTKGFVRISWFESYLNYLRKLNVSTDLPKKNFTDMLRNSFLKTPQFSHFQEDIIFSKKYNDEVDVVASRMFLVAKTMETNREELYDLLETLRRLSVTSKVKFIVFNPSFVYMDRYASSLGAPLHNSCISALFLLFFSAFLVADSLINVWITLTVVSVEFGVIGFMTLWKVELDCISVLCLIYGINYTIDNCAPLLSTFVLGKDFTRTKWVKNALEVHGVAILQSYLCYIVGLFPLAAVPSNLTCTLFRCLFLIAFVTFFHCFAILPVILTFLPPSKKKRKEKKNPENREEIECVEMVDIDSTRVVDQITTV
partner: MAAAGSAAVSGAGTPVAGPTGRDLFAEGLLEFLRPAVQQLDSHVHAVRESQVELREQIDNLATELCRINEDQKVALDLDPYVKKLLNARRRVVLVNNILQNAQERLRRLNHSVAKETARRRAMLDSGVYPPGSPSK

Variants of: B1
Details: with snapn_mouse Snapin

effect of a mutation on the interaction | Variant
increasing interaction strength | D527E
decreasing interaction strength | V195I
with no effect | V150M
decreasing interaction strength | Y213C
increasing interaction strength | F549C
with no effect | S51N
decreasing interaction strength | P75L
decreasing interaction strength | P75Q
decreasing interaction strength | K181T
with no effect | L73F
with no effect | Q102R
increasing interaction strength | T602A
